From publication PMC6648332 (Nucleic Acids Research, 2019)

Target: the molecule itself
Assay: SEC

B1: 3′-5′ exonuclease domain of human EXD2 (residues 76−295, EXD2-exo) (domain or fragment, UniProt Q9NVH0 76-295, looked up)
chain: KAKVVTVSQEAEWDQIEPLLRSELEDFPVLGIDCEWVNLEGKASPLSLLQMASPSGLCVLVRLPKLICGGKTLPRTLLDILADGTILKVGVGCSEDASKLLQDYGLVVRGCLDLRYLAMRQRNNLLCNGLSLKSLAETVLNFPLDKSLLLRCSNWDAETLTEDQVIYAARDAQISVALFLHLLGYPFSRNSPGEKNDDHSSWRKVLEKCQGVVDIPFRSK
  stoichiometry N: 2
